# Results from US20070160658A1, “Delivery system for diagnostic and therapeutic agents” (The Penn State Research Foundation, priority 2005, published 2007).
# Molecular target: T1, IL-13Rα2 (Homo sapiens, UniProt Q14627)
# T1 sequence (Q14627 27-380): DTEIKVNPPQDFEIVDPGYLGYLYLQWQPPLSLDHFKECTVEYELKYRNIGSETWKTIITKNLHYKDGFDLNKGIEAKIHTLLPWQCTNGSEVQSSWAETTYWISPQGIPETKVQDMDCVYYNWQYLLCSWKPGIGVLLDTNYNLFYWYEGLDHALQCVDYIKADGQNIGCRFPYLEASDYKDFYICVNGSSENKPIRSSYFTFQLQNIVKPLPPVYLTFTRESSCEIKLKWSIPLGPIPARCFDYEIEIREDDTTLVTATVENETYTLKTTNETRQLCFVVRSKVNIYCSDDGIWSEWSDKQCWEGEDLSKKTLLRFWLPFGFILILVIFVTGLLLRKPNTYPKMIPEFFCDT
# Test: titered cytotoxicity neutralization assay against IL13-PE38QQR cytotoxin
# Format: cell-based
# Conditions: protein 100 ng/ml; cytotoxin IL13-PE38QQR fixed at 10 ng/ml
# Description: Additionally, position K105 of this region of IL-13 is mutated into a variety of amino acids and the mutants' cytotoxic neutralization potential and binding affinity towards IL-13Rα2 is determined. […] In this titered cytotoxicity neutralization experiment, higher neutralization efficiency against the IL13-PE38QQR cytotoxin, for the mutant IL13.K105R is observed (Madhankumar A. B., Mintz, A., and Debinski, W. (2004) Neoplasia (New York) 6, 15-22). IL13.K105R is able to neutralize the cytotoxicity to 99% at 100 ng/ml concentration when compared with its blocking efficiency at 1000 ng/ml concentration. However, the wild type IL-13 and the mutant IL13.K106R and IL13.R109K have only 86.5%, 86.7% and 80.7% of the cytotoxicity neutralization efficiency with respect to their neutralization efficiency at 1000 ng/ml concentration. […] The high affinity mutant IL13.K105R is used as a ligand to conjugate to liposomes in order to better target the glioma associated IL-13Rα2 receptor.
row,Substance,cytotoxicity neutralization efficiency with respect to neutralization efficiency at 1000 ng/ml
1,IL13.K106R: mutant of IL-13 at position 106,86.7%
2,"wild type IL-13: human cytokine interleukin-13, wild type",86.5%
